In patent publication US10888549B2, “Pharmaceutical agents targeting cancer stem cells” (THE JOHNS HOPKINS UNIVERSITY, priority 2016, dated 2021) one finds SOX2 expression and YAP1 expression data, which are given here for one molecule.

One assay relates to SOX2. The assay can be described thus: SOX2 expression by western blotting / flow cytometry. Type of assay: cell-based, human. The conditions noted are these: basal-type cells. How it is done: Whole cell lysates were extracted using RIPA buffer (Thermo Scientific) supplemented with 10 μL/mL Halt™ Protease Inhibitor Cocktail Kit (Life Technologies) and 30 μL/mL Halt™ Phosphatase Inhibitor Cocktail Kit (Life Technologies). The protein concentrations were determined using a Pierce™ BCA Protein Assay Kit (Life Technologies), and the protein were separated on NuPAGE® 4-12% Bis-Tris Gel (Life Technologies) according to the manufacturer's protocol. […]
For extracellular staining, cells (1×10^6/100 μL stain buffer) were incubated with PE-Vio770-conjugated anti-human CD133 (293C3; Miltenyi Biotec, Auburn, USA) or PE-conjugated anti-human CD24 antibody (cat #, 560991; BD Biosciences) for 30 min at 4° C. in dark. […] Data were acquired on a BD FACSCalibur flow cytometer (BD Biosciences) using BD CellQuest Pro software (BD Biosciences) and analyzed with FlowJo software v10.1 (Tree Star, Ashland, USA).
For orientation: Immunoblotting shows a protein as a band on a membrane.

The subject of another assay is YAP1. In words: YAP1 expression by western blotting. Type of assay: cell-based, human. The conditions noted are these: basal-type cells. How it is done: Whole cell lysates were extracted using RIPA buffer (Thermo Scientific) supplemented with 10 μL/mL Halt™ Protease Inhibitor Cocktail Kit (Life Technologies) and 30 μL/mL Halt™ Phosphatase Inhibitor Cocktail Kit (Life Technologies). The protein concentrations were determined using a Pierce™ BCA Protein Assay Kit (Life Technologies), and the protein were separated on NuPAGE® 4-12% Bis-Tris Gel (Life Technologies) according to the manufacturer's protocol. COX2 (D5H5), NANOG (D73G4), OCT4 (D7O5Z), CD133 (A3G6K), Snail (C15D3), ZEB1 (D80D3), Vimentin (D21H3), CDH2 (D4R1H), CDH1 (24E10), p-EGFR (D7A5), EGFR (D38B1), p-AKT (D9E), AKT (cat #, 9272), p-ERK (D13.14.4E), ERK (137F5), p-YAP1 (D9W2I), p-Src (cat #, 2101), Src (36D10), DNMT1 (D63A6), DNMT3A (D23G1), and DNMT3B (D7O7O) antibodies were obtained from Cell Signaling Technology (Danvers, Mass., USA), except for SOX2 (EPR3131; Abcam, Cambridge, USA), YAP1 (ab52771; Abcam), CD24 (cat #, AF5247-SP; R&D Systems, Minneapolis USA) and β-actin (A2228; Sigma-Aldrich). Secondary horseradish peroxidase (HRP)-conjugated antibodies were obtained from Cell Signaling Technology, and chemiluminescent detection of HRP-labeled antibodies was performed using Amersham ECL Prime Western Blotting Detection Reagent (GE Healthcare, Piscataway, USA). As loading control, β-actin was used.

B1: EGF: Recombinant human epidermal growth factor (EGF) (protein, UniProt P01133 23-1207, looked up)
Pro-epidermal growth factor: PQHWSCPEGTLAGNGNSTCVGPAPFLIFSHGNSIFRIDTEGTNYEQLVVDAGVSVIMDFHYNEKRIYWVDLERQLLQRVFLNGSRQERVCNIEKNVSGMAINWINEEVIWSNQQEGIITVTDMKGNNSHILLSALKYPANVAVDPVERFIFWSSEVAGSLYRADLDGVGVKALLETSEKITAVSLDVLDKRLFWIQYNREGSNSLICSCDYDGGSVHISKHPTQHNLFAMSLFGDRIFYSTWKMKTIWIANKHTGKDMVRINLHSSFVPLGELKVVHPLAQPKAEDDTWEPEQKLCKLRKGNCSSTVCGQDLQSHLCMCAEGYALSRDRKYCEDVNECAFWNHGCTLGCKNTPGSYYCTCPVGFVLLPDGKRCHQLVSCPRNVSECSHDCVLTSEGPLCFCPEGSVLERDGKTCSGCSSPDNGGCSQLCVPLSPVSWECDCFPGYDLQLDEKSCAASGPQPFLLFANSQDIRHMHFDGTDYGTLLSQQMGMVYALDHDPVENKIYFAHTALKWIERANMDGSQRERLIEEGVDVPEGLAVDWIGRRFYWTDRGKSLIGRSDLNGKRSKIITKENISQPRGIAVHPMAKRLFWTDTGINPRIESSSLQGLGRLVIASSDLIWPSGITIDFLTDKLYWCDAKQSVIEMANLDGSKRRRLTQNDVGHPFAVAVFEDYVWFSDWAMPSVMRVNKRTGKDRVRLQGSMLKPSSLVVVHPLAKPGADPCLYQNGGCEHICKKRLGTAWCSCREGFMKASDGKTCLALDGHQLLAGGEVDLKNQVTPLDILSKTRVSEDNITESQHMLVAEIMVSDQDDCAPVGCSMYARCISEGEDATCQCLKGFAGDGKLCSDIDECEMGVPVCPPASSKCINTEGGYVCRCSEGYQGDGIHCLDIDECQLGEHSCGENASCTNTEGGYTCMCAGRLSEPGLICPDSTPPPHLREDDHHYSVRNSDSECPLSHDGYCLHDGVCMYIEALDKYACNCVVGYIGERCQYRDLKWWELRHAGHGQQQKVIVVAVCVVVLVMLLLLSLWGAHYYRTQKLLSKNPKNPYEESSRDVRSRRPADTEDGMSSCPQPWFVVIKEHQDLKNGGQPVAGEDGQAADGSMQPTSWRQEPQLCGMGTEQGCWIPVSSDKGSCPQVMERSFHMPSYGTQTLEGGVEKPHSLLSANPLWQQRALDPPHQMELTQ
modifications: Pro-epidermal growth factor
In the case of B1, the SOX2 expression result in the assay with SOX2 is on record as “increased”. Further, the YAP1 expression entry in the assay on YAP1 was “increased”.
